According to the DeepSol protein solubility set:

test: soluble on expression in E. coli; label from the status in PepcDB or PDB records

| Sequence | soluble on expression in E. coli |
| --- | --- |
| MDMAKDKGFFKKAKTGKNKSSATPYAEECAIQIPSEIDNEQMHRMPAGGEEDQYLRIKHMSALIKKYGNLPIITTRETRLPDYWLELFTAIDEGDTPKAHALFHLLPQEDIILRALRAVHSEDYLYQLIKYCIQAKHFGFKQLNADLVVTPKTFEILIKDCATTLFNPAKTHFSFGLPSHHAYTQMGSGFCLINKTAMLIKQAELSSVQPPRFVIIGTDVNRDNGLCDILRHSFSHLSICHIDVFDSRVYPQQDFSYINNEFNSEGVDVGKNIHVWHHNDLSYYAVDLSLTSRKSVGVHPALLFALEQFKASIREAKVKGQKIALYLPTGWDSHEDETAYCGKFVKGRMLGKTAAHQFRFNDGDLSYFYESIFTLYNENKDCIDTIYWGLEGGYDRTMYKRELTLLLQVIEKQLLPQDSNSHNMSCLEHHHHHH | not soluble |
| MDMHSGTFNPQDFAWQGLTLTPAAAIHIRELVAKQPGMVGVRLGVKQTGCAGFGYVLDSVSEPDKDDLLFEHDGAKLFVPLQAMPFIDGTEVDFVREGLNQIFKFHNPKAQNECGCGESFGV | not soluble |
| MDNDKNSIIDIVGDGINYEKLKKVEKSLCQIDIITEFMNRSRHLQGKKVNGCIMRIDETKQLLFHVIIDGPVGSIYEGGTFFADINIQPYQNHSLIPRVCFHTFIFHPNLGKYGNWDMRGIQWERRSNLEVLYNFIVEGMRNVKYDIERRNLAQLEDMSQPNISRLAKEDWPKFERTAREFVMKMAGGTINGRKTIFAETKKRRRQDFLDEDIDVIGIS | not soluble |
| MDNEKKSMYEPGVILGGCTLRRQLNDSGEAMVFLAESGNEEKKEVIIKFFKCGYGEDEIKYLDVLTNHEQRRNIVEMLKSFETPEIRLGMVFKRYETDLFGILGDRQRLQPSTIQKYMKGLMEGLQFIHRMDYIHRDIKPENLLIDGETICIADFGETVLSTSDKVVKPGTLPYLTIEHILGYKENTKSMDIWAAACVLGAMFQGSHLFSQNSNLQTIHAIRLLLGNHTKETWPEMDKLPLMQSIELPPVGEKTFSKIENITKEAADLMEQMMKYDPTKRLMASQVLNHEYFKKEASAQAN | not soluble |
| MDNPVTFSDITLLNTLATCANMTTDEVFKDFKIMANKKILKNHKYEIYYSESEKSWRTYLPDETKPNKRRPVKRKSKENLEKEIIRFYIEKQKAENRQNVTLEELYAEWLLYKRDYTSVKAKTIQEYVSEWNRFFKDTELVKMKIGEIKPITLIRFFREATKDRQFTHKRVSNARSVLNGIMSYAIEEEIISHNPVSDVNFKQFTYKPVEVQSDNVFSRDDTHKLLNYLRCIIEPYSLAIQLSFYLFIRVGETKAIRWEDIDYNNRLVYFHRQATCERTLNDDLTFSSRKVKVVNQMKGNTSHGFRKQFLTDEALKILHKAKELNPNGIYVFEPNGEIMTTDSFNRRLKKYCKEAGVPYHSSHKIRFYNASTAFDGNNLTTLSYLMGHSETATTLHYLRNVNKRKNDRLAFQNLGISS | not soluble |
| MDPGQRPNPFGAPGAIPKKPCLSQGSPGTSGSGAPCDEPSRSESPGEGPSGTGGSAAAGDITRQAVVAAITEWSRTRQLRISTGASEGKASIKDWIVCQVNSGKFPGVEWEDEERTRFRIPVTPLADPCFEWRRDGELGVVYIRERGNMPVDASFKGTRGRRRMLAALRRTRGLQEIGKGISQDGHHFLVFRVRKPEEEQCVECGVVAGAVHDFNNMARLLQEGFFSPGQCLPGEIVTPVPSCTTAEGQEAVIDWGRLFIRMYYNGEQVHELLTTSQSGCRISSALRRDPAVHYCAVGSPGQVWLPNVPNLACEIAKRELCDTLDACAKGILLTSSCNGIFCVCYHNGPVHFIGNTVPPDSGPLLLPQGKPTRIFNPNTFLVGLANSPLPAPSHVTCPLVKLWLGKPVAVGKLEPHAPSPRDFAARCSNFSDACVVLEIMPKPLWDAMQ | soluble |
| MDPTDLSFSPDEINKLIETGLNTVEYFTSQQVTGTSSLGKNTIPPGVTGLLTNAAEAKIQESTNHQKGSVGGGAKPKKPRPKIAIVPADDKTVPGKPIPNPLLGLDSTPSTQTVLDLSGKTLPSGSYKGVKLAKFGKENLMTRFIEEPRENPIATSSPIDFKRGRDTGGFHRREYSIGWVGDEVKVTEWCNPSCSPITAAARRFECTCHQCPVTCSECERDT | soluble |
| MDPYQQGGRGGGFPARGGRGGGHGGGYPQEGYGAAAGGYGGYDPYNPYGAAGGYGMYPGQGYPPQEMTSPLDAEIQAVLREIHLEVTGLETSGDQFRNARRLLNSEKERLENNIDPEWLEVDVAKPVKVCKKILVPIYRHPNFNFIGKVLGPKGATLQTLCKTHKCHIYILGRGSTKDREKEAELLASGDPQHAHFSGPLHVKVETVAPAYIAYGRVAAVIEELSRILQPIHEDTTPAHLKNGSGDGEEKEDEEKKEGGEGGGRGGRGGRGGFRGGFRGGRGGFGGPGGPMGGRGGMGGMGGRGRGGQAAGFRPY | not soluble |
| MDQECIENYAKVNGIYIYYKLCKAPEEKAKLMTMHGGPGMSHDYLLSLRDMTKEGITVLFYDQFGCGRSEEPDQSKFTIDYGVEEAEALRSKLFGNEKVFLMGSSYGGALALAYAVKYQDHLKGLIVSGGLSSVPLTVKEMNRLIDELPAKYRDAIKKYGSSGSYENPEYQEAVNYFYHQHLLRSEDWPPEVLKSLEYAERRNVYRIMNGPNQFTITGTIKDWDITDKISAIKIPTLITVGEYDEVTPNVARVIHEKIAGSELHVFRDCSHLTMWEDREGYNKLLSDFILKHL | soluble |
| MDQENERNISRLWRAFRTVKEMVKDRGYFITQEEVELPLEDFKAKYCDSMGRPQRKMMSFQANPTEESISKFPDMGSLWVEFCDEPSVGVKTMKTFVIHIQEKNFQTGIFVYQNNITPSAMKLVPSIPPATIETFNEAALVVNITHHELVPKHIRLSSDEKRELLKRYRLKESQLPRIQRADPVALYLGLKRGEVVKIIRKSETSGRYASYRICM | soluble |
| MDQNRGSDVGFAVPMLPVNYASATQKMSTLASTSSAGASSSTGSSNQQQQQAAAVIRRRRFSTAKIQPTRIKKVMQSDEDIGRMVQSVPVSIGRAMEHFAEKFLQAAAEATQFTSSKTLNPQHMKQAVLNTPHFSFLESVFKDVALPQQASELNTARTGMTLRGQQMLQEQQNSDFASAILANAQMQMMQMDQQALKQEDGTISPYLVDPQSPAAPLPLYLQGIPSNYPVVQELTATVPLSPSTPTTQLVNGMLGMLKYSKKDSEGQRLTGLKRASTDGDGEDRPKRGRPKKLKPEKCIDDDLYEEASRNIAKEDKDRELMPPPALPIGRP | not soluble |
| MDQPWNANIHYDALLDAMVPLGTQCVLDVGCGDGLLAARLARRIPYVTAVDIDAPVLRRAQTRFANAPIRWLHADIMTAELPNAGFDAVVSNAALHHIEDTRTALSRLGGLVTPGGTLAVVTFVTPSLRNGLWHLTSWVACGMANRVKGKWEHSAPIKWPPPQTLHELRSHVRALLPGACIRRLLYGRVLVTWRAPVLEHHHHHH | not soluble |
| MDREALLQAVKEARELAKPRNFTQSFEFIATLKEIDMRKPENRIKTEVVLPHGRGKEAKIAVIGTGDLAKQAEELGLTVIRKEEIEELGKNKRKLRKIAKAHDFFIAQADLMPLIGRYMGVILGPRGKMPKPVPANANIKPLVERLKKTVVINTRDKPYFQVLVGNEKMTDEQIVDNIEAVLNVVAKKYEKGLYHIKDAYVKLTMGPAVKVKKEKAKKK | soluble |
| MDRNFKLRQMFSDYLDNKNSNSTHTPPVRVHYPLIATMSPADKARFTVKKITEVEGEVLDAPLENAHPVFFAEPQFELRWYNKPDSLAGRFQTNAEAETTSKLAQRLLTLFLKTEMLESAFFKYDDIRAIRVFFMDDREMATDRLMAILDNILSVSMTKLGHFSDKMSVTVDYELRAFMSDQKKAKRLVLEAMLKYPEFIPDSWGGESAILKWKEMKEIDVRRREADIKEMAETERKEKEKVEKNKMEMTEKIKKKDEDEKAKKEKERIDKEEKIKKEVEEAEKKKKEEKEKRRKEVKKNREEQLSINPEMSRNDKKDVVEEKSCLDKGAKDAQKKKKQQDVVDKKKEKRKLKKTRTMEASRSREVSHEEHHQPPVLSTLATPSPVPSPSVPPTAPPSTPRKPMFGAVSQFLSGRKRREPSAEKIVEPPSKNSAAATKKTVRK | not soluble |
